Source: article PMC8997907, “A Novel Role for Plasminogen Activator Inhibitor Type-2 as a Hypochlorite-Resistant Serine Protease Inhibitor and Holdase Chaperone” (Cells, 2022)

Molecular target: the molecule itself
Assay: native gel or EMSA; samples at the end of ThT assays (Aβ1-42 3 µM with PAI-2 pre-treated with 0-200 µM NaOCl, PBS, 28 °C) centrifuged at 24,000 x g, supernatant on 8% native PAGE, Western blot with anti-Aβ (W0-2) or anti-PAI-2

Row | Protein | binding result
1 | Hypochlorite-treated glycosylated PAI-2 (PAI-2^G pre-treated with NaOCl) (natural protein, human, UniProt P05120 1-415, looked up, glycosylated; hypochlorite-modified: dityrosine cross-linkages, reactive thiols (cysteines) reduced by 62 ± 27% at 200 µM NaOCl; positions not given, m1 after treatment with NaOCl; the dose differs between experiments (0-200 µM); also called hypochlorite-treated PAI-2^G; PAI-2^G OX200; source: bought: Biotech Australia (produced in CHO cells); incubated 2 h at 24 °C with up to 200 µM NaOCl, dialysed) MEDLCVANTLFALNLFKHLAKASPTQNLFLSPWSISSTMAMVYMGSRGSTEDQMAKVLQFNEVGANAVTPMTPENFTSCGFMQQIQKGSYPDAILQAQAADKIHSSFRSLSSAINASTGNYLLESVNKLFGEKSASFREEYIRLCQKYYSSEPQAVDFLECAEEARKKINSWVKTQTKGKIPNLLPEGSVDGDTRMVLVNAVYFKGKWKTPFEKKLNGLYPFRVNSAQRTPVQMMYLREKLNIGYIEDLKAQILELPYAGDVSMFLLLPDEIADVSTGLELLESEITYDKLNKWTSKDKMAEDEVEVYIPQFKLEEHYELRSILRSMGMEDAFNKGRANFSGMSERNDLFLSEVFHQAMVDVNEEGTEAAAGTGGVMTGRTGHGGPQFVADHPFLFLIMHKITNCILFFGRFSSP | binds
2 | Hypochlorite-treated non-glycosylated PAI-2 (PAI-2^NG pre-treated with NaOCl) (natural protein, human, UniProt P05120 1-415, looked up, hypochlorite-modified: dityrosine cross-linkages, reactive thiols (cysteines) reduced by 75 ± 18% at 200 µM NaOCl; positions not given, m2 after treatment with NaOCl; the dose differs between experiments (0-200 µM); also called hypochlorite-treated PAI-2^NG; PAI-2^NG OX200; source: bought: Biotech Australia (produced in E. coli); incubated 2 h at 24 °C with up to 200 µM NaOCl, dialysed) MEDLCVANTLFALNLFKHLAKASPTQNLFLSPWSISSTMAMVYMGSRGSTEDQMAKVLQFNEVGANAVTPMTPENFTSCGFMQQIQKGSYPDAILQAQAADKIHSSFRSLSSAINASTGNYLLESVNKLFGEKSASFREEYIRLCQKYYSSEPQAVDFLECAEEARKKINSWVKTQTKGKIPNLLPEGSVDGDTRMVLVNAVYFKGKWKTPFEKKLNGLYPFRVNSAQRTPVQMMYLREKLNIGYIEDLKAQILELPYAGDVSMFLLLPDEIADVSTGLELLESEITYDKLNKWTSKDKMAEDEVEVYIPQFKLEEHYELRSILRSMGMEDAFNKGRANFSGMSERNDLFLSEVFHQAMVDVNEEGTEAAAGTGGVMTGRTGHGGPQFVADHPFLFLIMHKITNCILFFGRFSSP | binds
